Test results reported in IntAct's records for PubMed 11864996.

B1: Forkhead box protein O3 (Homo sapiens), O43524 (parent)
chain: MAEAPASPAPLSPLEVELDPEFEPQSRPRSCTWPLQRPELQASPAKPSGETAADSMIPEEEDDEDDEDGGGRAGSAMAIGGGGGSGTLGSGLLLEDSARVLAPGGQDPGSGPATAAGGLSGGTQALLQPQQPLPPPQPGAAGGSGQPRKCSSRRNAWGNLSYADLITRAIESSPDKRLTLSQIYEWMVRCVPYFKDKGDSNSSAGWKNSIRHNLSLHSRFMRVQNEGTGKSSWWIINPDGGKSGKAPRRRAVSMDNSNKYTKSRGRAAKKKAALQTAPESADDSPSQLSKWPGSPTSRSSDELDAWTDFRSRTNSNASTVSGRLSPIMASTELDEVQDDDAPLSPMLYSSSASLSPSVSKPCTVELPRLTDMAGTMNLNDGLTENLMDDLLDNITLPPSQPSPTGGLMQRSSSFPYTTKGSGLGSPTSSFNSTVFGPSSLNSLRQSPMQTIQENKPATFSSMSHYGNQTLQDLLTSDSLSHSDVMMTQSDPLMSQASTAVSAQNSRRNVMLRNDPMMSFAAQPNQGSLVNQNLLHHQHQTQGALGGSRALSNSVSNMGLSESSSLGSAKHQQQSPVSQSMQTLSDSLSGSSLYSTSANLPVMGHEKFPSDLDLDMFNGSLECDMESIIRSELMDADGLDFNFDSLISTQNVVGLNVGNFTGAKQASSQSWVPG

Variants of: B1
Details: with 1433z_human YWHAZ

effect of a mutation on the interaction | Variant
disrupting interaction | T32A;S253A;S315A
